We go through 3 molecules from paper PMC3758421.

What all share (experiment): Spinach sensor fluorescence
The target of one data set is thrombin (human, UniProt P00734;P00734 315-363;364-622).
For another data set, the target named is streptavidin (UniProt P22629 25-183).
Data set [1] concerns the target MS2 phage coat protein (MCP) (MS2 phage, UniProt P03612 2-130).

Chain of MS2 phage coat protein (MCP) (P03612 2-130): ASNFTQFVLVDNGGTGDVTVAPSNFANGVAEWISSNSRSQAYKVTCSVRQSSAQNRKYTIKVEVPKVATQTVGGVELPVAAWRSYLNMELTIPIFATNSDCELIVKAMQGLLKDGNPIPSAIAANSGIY
Chain of streptavidin (P22629 25-183): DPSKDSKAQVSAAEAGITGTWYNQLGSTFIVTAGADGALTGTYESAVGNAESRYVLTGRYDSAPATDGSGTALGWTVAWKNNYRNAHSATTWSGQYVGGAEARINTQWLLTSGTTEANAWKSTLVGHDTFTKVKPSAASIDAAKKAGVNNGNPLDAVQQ

B1: thrombin sensor (Spinach fusion) (structured_RNA)
RNA: GACGCGACUGAAUGAAAUGGUGAAGGACGGGUCCAGGAACAAAGCUGAAGUACUUACCUUGUUGAGUAGAGUGUGAGCUCCGUAACUAGUCGCGUC
On to B1, for which, in the data set with thrombin, the binding signal is 6.9 fold fluorescence increase.

B2: streptavidin sensor (Spinach fusion) (structured_RNA)
RNA: GACGCGACUGAAUGAAAUGGUGAAGGACGGGUCCACGACCGACCAGAAUCAUGCAAGUGCGUAAGAUAGUCGCGGGCCGGGGUUGUUGAGUAGAGUGUGAGCUCCGUAACUAGUCGCGUC
For B2, the binding signal with streptavidin was 10.3 fold fluorescence increase.

B3: MCP sensor (Spinach fusion with MS2E) (structured_RNA)
RNA: GACGCGACUGAAUGAAAUGGUGAAGGACGGGUCCAAUGAGGAUCACCCAUUUGUUGAGUAGAGUGUGAGCUCCGUAACUAGUCGCGUC
With B3, in data set [1], the binding signal is 41.7 fold fluorescence increase.
